The text below walks through data of patent publication EP4674954A1.

Assay [1] addresses mbIL-7-3 (CD52 signal peptide-IL-7-linker 4-point-mutated BCMA extracellular domain-CD52). As to the kind of experiment: flow cytometry, share of stained cells; TIL sample T005-3 electroporated with mbIL-7-3. A general note: In flow cytometry, cells or beads pass a laser one at a time.
In assay [2] the target is mbIL-7-7 (CD52 signal peptide-IL-7-linker 2-BCMA extracellular domain-CD8 transmembrane domain). As to the kind of experiment: flow cytometry, share of stained cells; TIL sample T003-7 electroporated with mbIL-7-7.
In assay [3] the target is mbIL-7-2 (CD52 signal peptide-IL-7-linker 2-BCMA extracellular domain-CD52). Kind of assay: flow cytometry, share of stained cells; TIL sample T002-2 electroporated with mbIL-7-2.
The target in assay [4] is mbIL-7-3 (CD52 signal peptide-IL-7-linker 4-point-mutated BCMA extracellular domain-CD52). Kind of assay: flow cytometry, share of stained cells; TIL sample T009-3 electroporated with mbIL-7-3.
Assay [5] has as its target mbIL-7-9 (CD52 signal peptide-IL-7-linker 5-truncated point-mutated BCMA extracellular domain-CD52). Kind of assay: flow cytometry, share of stained cells; TIL sample T014-9 electroporated with mbIL-7-9.
Assay [6] shares this target. As to the kind of experiment: flow cytometry, share of stained cells; TIL sample T013-9 electroporated with mbIL-7-9.
Assay [7] addresses mbIL-7-5 (CD52 signal peptide-IL-7-point mutation BCMA extracellular domain-linker 4-CD52). Kind of assay: flow cytometry, share of stained cells; TIL sample T006-5 electroporated with mbIL-7-5.
The target in assay [8] is mbIL-7-4 (CD52 signal peptide-IL-7-linker 5-truncated point-mutated BCMA extracellular domain-CD8 extracellular hinge region-CD52). As to the kind of experiment: flow cytometry, share of stained cells; TIL sample T010-4 electroporated with mbIL-7-4.
Assay [9] has as its target mbIL-7-1 (CD52 signal peptide-IL-7-linker 1-BCMA extracellular domain-CD52). Kind of assay: flow cytometry, share of stained cells; TIL sample T001-1 electroporated with mbIL-7-1.
The target of assay [10] is mbIL-7-8 (IL-7 signal peptide-IL-7-linker 2-truncated BCMA extracellular domain-CD52). Kind of assay: flow cytometry, share of stained cells; TIL sample T008-8 electroporated with mbIL-7-8.
In assay [11] the target is mbIL-7-2 (CD52 signal peptide-IL-7-linker 2-BCMA extracellular domain-CD52). Kind of assay: flow cytometry, share of stained cells; TIL sample T003-2 electroporated with mbIL-7-2.
For assay [12], the target named is mbIL-7-9 (CD52 signal peptide-IL-7-linker 5-truncated point-mutated BCMA extracellular domain-CD52). Kind of assay: flow cytometry, share of stained cells; TIL sample T011-9 electroporated with mbIL-7-9.
Assay [13] concerns the target mbIL-7-6 (CD52 signal peptide-IL-7-linker 3-BCMA extracellular domain-CD52). As to the kind of experiment: flow cytometry, share of stained cells; TIL sample T007-6 electroporated with mbIL-7-6.
The target of assay [14] is mbIL-7-9 (CD52 signal peptide-IL-7-linker 5-truncated point-mutated BCMA extracellular domain-CD52). Kind of assay: flow cytometry, share of stained cells; TIL sample T012-9 electroporated with mbIL-7-9.
Assay [15] deals with mbIL-7-1 (CD52 signal peptide-IL-7-linker 1-BCMA extracellular domain-CD52). Kind of assay: flow cytometry, share of stained cells; TIL sample T004-1 electroporated with mbIL-7-1.
Chain of mbIL-7-1 (CD52 signal peptide-IL-7-linker 1-BCMA extracellular domain-CD52) (chain, as listed by the source limits assumed): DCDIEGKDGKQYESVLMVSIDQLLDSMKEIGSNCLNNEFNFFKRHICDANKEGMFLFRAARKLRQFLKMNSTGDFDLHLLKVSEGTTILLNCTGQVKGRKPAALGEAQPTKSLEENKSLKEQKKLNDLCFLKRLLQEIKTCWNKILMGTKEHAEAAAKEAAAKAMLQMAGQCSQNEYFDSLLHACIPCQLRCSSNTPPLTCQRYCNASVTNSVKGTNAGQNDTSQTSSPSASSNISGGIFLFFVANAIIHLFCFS

Chain of mbIL-7-9 (CD52 signal peptide-IL-7-linker 5-truncated point-mutated BCMA extracellular domain-CD52) (chain, as listed by the source limits assumed, change not shown): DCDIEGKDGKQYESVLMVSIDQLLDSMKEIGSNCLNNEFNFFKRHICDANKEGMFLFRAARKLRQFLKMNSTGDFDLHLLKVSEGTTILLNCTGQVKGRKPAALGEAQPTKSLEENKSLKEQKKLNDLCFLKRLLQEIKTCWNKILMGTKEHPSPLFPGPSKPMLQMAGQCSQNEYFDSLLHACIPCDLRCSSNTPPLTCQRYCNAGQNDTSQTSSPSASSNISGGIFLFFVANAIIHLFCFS
Chain of mbIL-7-2 (CD52 signal peptide-IL-7-linker 2-BCMA extracellular domain-CD52) (chain, as listed by the source limits assumed): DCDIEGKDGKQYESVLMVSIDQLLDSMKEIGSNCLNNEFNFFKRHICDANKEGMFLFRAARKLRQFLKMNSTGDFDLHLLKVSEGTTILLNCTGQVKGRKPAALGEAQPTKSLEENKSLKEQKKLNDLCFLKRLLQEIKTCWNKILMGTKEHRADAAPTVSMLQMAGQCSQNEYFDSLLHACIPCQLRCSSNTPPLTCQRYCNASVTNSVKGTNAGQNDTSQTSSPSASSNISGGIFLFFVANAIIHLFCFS
Chain of mbIL-7-3 (CD52 signal peptide-IL-7-linker 4-point-mutated BCMA extracellular domain-CD52) (chain, as listed by the source limits assumed, change not shown): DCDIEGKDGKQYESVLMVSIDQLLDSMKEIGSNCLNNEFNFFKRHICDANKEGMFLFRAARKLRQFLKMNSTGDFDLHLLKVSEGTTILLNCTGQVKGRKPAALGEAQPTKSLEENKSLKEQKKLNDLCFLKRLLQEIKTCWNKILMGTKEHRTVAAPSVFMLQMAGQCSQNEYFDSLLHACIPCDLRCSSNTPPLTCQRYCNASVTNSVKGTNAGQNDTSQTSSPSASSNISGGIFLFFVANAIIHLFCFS
Chain of mbIL-7-4 (CD52 signal peptide-IL-7-linker 5-truncated point-mutated BCMA extracellular domain-CD8 extracellular hinge region-CD52) (chain, as listed by the source limits assumed, change not shown): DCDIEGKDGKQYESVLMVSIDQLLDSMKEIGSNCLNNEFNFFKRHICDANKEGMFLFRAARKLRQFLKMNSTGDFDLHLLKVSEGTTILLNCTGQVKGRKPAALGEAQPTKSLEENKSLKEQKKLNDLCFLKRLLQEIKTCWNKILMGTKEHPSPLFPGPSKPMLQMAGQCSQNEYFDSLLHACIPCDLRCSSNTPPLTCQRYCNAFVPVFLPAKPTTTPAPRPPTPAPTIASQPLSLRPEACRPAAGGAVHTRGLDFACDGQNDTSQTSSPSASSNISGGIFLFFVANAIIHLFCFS
Chain of mbIL-7-5 (CD52 signal peptide-IL-7-point mutation BCMA extracellular domain-linker 4-CD52) (chain, as listed by the source limits assumed, change not shown): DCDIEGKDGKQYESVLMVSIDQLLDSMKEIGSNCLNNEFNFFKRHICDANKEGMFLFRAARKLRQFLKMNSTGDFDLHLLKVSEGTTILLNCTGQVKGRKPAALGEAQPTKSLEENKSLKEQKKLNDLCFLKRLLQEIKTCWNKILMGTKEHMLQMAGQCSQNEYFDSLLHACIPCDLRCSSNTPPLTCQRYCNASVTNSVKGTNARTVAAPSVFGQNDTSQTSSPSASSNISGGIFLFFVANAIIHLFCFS
Chain of mbIL-7-7 (CD52 signal peptide-IL-7-linker 2-BCMA extracellular domain-CD8 transmembrane domain) (chain, as listed by the source limits assumed): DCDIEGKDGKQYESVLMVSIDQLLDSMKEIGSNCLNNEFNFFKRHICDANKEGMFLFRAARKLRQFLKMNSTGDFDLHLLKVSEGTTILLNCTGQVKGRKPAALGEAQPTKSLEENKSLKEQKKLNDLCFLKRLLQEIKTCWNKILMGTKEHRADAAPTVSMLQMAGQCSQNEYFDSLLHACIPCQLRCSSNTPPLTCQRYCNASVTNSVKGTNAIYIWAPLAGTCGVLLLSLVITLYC
Chain of mbIL-7-8 (IL-7 signal peptide-IL-7-linker 2-truncated BCMA extracellular domain-CD52) (chain, as listed by the source limits assumed): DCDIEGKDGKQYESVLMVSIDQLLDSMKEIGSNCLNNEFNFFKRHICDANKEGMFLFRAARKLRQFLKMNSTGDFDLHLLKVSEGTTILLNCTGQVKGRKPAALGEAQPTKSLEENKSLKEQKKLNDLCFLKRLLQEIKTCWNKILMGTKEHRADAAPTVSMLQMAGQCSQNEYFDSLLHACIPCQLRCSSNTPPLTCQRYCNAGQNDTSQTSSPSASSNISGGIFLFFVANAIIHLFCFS
Chain of mbIL-7-6 (CD52 signal peptide-IL-7-linker 3-BCMA extracellular domain-CD52) (chain, as listed by the source limits assumed): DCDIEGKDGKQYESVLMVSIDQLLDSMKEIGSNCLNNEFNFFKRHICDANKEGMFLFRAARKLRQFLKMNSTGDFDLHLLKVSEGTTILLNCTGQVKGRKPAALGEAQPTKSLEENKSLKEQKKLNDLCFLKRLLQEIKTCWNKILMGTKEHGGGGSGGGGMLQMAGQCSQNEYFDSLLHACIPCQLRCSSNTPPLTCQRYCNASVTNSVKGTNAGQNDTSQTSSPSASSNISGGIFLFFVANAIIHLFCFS

As for “BCMA flow antibody (purchased from Biolegend, catalog number 357504)”, the Positive rate (%) in assay [1] was 54.1%; in assay [2] it was 15.1%; in assay [3], 45.4%; in [4] it was 52%; in [5], 41.1%; in [6], 45.9%. Also, the Positive rate (%) in assay [7] was 44.7%; in [8], 43.8%; in assay [9], 49.3%; in assay [10], 42.5%; in assay [11], 51.2%; in assay [12], 47.6%. The Positive rate (%) in assay [13] was 12.3%; in assay [14], 50.1%; in assay [15], 40.2%.
